The record followed here is patent publication US20240392262A1, “TRANSPOSASE AND USES THEREOF” (Poseida Therapeutics, Inc., published 2024).

The target of series [1] is T1, GFP1 Right TAL-PBx (synthetic construct).
T1 chain: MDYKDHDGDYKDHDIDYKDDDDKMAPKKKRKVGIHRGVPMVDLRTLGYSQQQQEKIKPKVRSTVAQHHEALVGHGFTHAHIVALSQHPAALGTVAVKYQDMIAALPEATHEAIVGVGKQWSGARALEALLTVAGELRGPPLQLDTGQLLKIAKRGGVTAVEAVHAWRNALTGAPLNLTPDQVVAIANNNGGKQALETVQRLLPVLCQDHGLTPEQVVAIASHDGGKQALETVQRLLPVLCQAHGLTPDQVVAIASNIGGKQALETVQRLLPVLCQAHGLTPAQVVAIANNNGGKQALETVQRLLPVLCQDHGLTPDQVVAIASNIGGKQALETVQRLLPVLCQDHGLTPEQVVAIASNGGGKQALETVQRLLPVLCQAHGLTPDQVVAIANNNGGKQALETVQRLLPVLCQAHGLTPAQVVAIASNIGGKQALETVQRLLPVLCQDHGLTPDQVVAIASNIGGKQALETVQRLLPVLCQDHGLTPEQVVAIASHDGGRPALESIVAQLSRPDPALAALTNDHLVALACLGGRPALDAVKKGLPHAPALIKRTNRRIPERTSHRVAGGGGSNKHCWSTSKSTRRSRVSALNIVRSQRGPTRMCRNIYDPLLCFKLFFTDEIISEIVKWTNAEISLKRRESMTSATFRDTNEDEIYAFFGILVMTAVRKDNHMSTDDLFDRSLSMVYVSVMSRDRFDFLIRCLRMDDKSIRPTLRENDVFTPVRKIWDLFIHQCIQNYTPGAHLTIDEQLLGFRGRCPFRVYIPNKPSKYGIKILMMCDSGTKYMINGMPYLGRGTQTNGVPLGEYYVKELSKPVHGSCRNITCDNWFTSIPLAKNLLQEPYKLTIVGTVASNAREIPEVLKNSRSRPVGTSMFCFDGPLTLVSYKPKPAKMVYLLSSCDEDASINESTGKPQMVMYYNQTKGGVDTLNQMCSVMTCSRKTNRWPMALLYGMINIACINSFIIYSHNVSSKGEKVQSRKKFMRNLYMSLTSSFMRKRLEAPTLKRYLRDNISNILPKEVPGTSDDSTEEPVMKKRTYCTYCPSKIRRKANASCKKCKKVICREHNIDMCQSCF
Briefly: cell_activity. The note with it: tags: 3xFlag, SV40 NLS; chain copies: 2.

For series [2], the target named is T2, GFP1 Right NT-betaN TAL-PBx (synthetic construct).
T2 chain: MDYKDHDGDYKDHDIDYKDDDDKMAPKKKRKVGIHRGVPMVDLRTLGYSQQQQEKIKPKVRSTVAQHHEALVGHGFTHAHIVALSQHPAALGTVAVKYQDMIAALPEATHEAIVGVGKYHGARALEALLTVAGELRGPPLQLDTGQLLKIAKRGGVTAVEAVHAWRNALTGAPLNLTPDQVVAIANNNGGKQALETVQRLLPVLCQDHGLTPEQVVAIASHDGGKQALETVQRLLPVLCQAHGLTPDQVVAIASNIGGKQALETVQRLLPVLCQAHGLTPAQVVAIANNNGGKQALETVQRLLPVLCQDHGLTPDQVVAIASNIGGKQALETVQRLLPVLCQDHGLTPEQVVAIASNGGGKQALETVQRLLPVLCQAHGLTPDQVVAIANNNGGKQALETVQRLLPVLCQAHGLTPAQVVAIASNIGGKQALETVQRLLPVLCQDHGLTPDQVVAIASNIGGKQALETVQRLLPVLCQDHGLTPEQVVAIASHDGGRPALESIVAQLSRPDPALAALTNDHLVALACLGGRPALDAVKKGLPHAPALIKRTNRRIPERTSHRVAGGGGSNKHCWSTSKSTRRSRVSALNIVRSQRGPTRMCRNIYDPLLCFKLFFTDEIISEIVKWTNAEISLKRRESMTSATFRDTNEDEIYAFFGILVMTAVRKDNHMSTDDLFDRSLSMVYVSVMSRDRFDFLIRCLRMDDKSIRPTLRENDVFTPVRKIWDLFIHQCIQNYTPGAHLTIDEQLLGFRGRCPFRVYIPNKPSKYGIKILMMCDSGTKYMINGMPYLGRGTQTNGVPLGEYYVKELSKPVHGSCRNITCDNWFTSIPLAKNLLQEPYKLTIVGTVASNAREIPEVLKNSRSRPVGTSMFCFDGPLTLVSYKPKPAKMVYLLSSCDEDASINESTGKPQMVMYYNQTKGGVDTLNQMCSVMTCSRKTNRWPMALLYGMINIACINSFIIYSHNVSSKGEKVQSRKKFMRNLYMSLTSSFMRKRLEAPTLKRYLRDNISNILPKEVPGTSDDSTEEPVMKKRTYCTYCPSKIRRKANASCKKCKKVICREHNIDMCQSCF
Briefly: cell_activity. The note with it: tags: 3xFlag, SV40 NLS; chain copies: 2.

Series [3] has as its target T3, GFP1 Right NT-G TAL-PBx (synthetic construct).
T3 chain: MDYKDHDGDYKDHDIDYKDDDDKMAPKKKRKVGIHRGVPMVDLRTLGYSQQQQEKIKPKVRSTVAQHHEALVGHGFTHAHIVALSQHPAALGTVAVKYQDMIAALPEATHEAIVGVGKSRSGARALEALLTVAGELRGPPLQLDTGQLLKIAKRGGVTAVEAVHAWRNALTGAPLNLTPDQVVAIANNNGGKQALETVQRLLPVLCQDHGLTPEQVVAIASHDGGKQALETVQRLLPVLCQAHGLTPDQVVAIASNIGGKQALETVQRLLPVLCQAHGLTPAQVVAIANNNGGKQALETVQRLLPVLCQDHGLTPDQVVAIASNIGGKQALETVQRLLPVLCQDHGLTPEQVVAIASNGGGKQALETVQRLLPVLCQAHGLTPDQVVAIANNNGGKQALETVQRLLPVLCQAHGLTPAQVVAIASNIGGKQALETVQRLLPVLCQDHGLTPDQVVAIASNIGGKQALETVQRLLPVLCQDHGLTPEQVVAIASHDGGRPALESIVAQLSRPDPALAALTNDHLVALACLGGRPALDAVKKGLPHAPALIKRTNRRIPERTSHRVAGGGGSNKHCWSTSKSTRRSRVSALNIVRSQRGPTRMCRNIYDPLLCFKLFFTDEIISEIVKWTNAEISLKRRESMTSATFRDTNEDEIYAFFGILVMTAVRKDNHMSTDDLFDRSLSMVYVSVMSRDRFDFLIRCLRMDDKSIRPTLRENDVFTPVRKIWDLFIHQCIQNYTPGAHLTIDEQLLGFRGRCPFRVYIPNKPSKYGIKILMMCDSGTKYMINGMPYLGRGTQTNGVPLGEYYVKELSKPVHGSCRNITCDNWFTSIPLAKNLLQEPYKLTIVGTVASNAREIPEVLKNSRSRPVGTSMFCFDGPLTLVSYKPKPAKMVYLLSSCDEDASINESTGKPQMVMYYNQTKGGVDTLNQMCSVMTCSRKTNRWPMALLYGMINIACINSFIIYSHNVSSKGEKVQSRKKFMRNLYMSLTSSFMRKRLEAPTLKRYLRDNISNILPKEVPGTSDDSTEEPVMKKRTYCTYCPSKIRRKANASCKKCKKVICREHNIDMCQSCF
Description: cell_activity. The note with it: tags: 3xFlag, SV40 NLS; chain copies: 2.

The target in series [4] is T4, PAH1 Right TAL-PBx (synthetic construct).
T4 chain: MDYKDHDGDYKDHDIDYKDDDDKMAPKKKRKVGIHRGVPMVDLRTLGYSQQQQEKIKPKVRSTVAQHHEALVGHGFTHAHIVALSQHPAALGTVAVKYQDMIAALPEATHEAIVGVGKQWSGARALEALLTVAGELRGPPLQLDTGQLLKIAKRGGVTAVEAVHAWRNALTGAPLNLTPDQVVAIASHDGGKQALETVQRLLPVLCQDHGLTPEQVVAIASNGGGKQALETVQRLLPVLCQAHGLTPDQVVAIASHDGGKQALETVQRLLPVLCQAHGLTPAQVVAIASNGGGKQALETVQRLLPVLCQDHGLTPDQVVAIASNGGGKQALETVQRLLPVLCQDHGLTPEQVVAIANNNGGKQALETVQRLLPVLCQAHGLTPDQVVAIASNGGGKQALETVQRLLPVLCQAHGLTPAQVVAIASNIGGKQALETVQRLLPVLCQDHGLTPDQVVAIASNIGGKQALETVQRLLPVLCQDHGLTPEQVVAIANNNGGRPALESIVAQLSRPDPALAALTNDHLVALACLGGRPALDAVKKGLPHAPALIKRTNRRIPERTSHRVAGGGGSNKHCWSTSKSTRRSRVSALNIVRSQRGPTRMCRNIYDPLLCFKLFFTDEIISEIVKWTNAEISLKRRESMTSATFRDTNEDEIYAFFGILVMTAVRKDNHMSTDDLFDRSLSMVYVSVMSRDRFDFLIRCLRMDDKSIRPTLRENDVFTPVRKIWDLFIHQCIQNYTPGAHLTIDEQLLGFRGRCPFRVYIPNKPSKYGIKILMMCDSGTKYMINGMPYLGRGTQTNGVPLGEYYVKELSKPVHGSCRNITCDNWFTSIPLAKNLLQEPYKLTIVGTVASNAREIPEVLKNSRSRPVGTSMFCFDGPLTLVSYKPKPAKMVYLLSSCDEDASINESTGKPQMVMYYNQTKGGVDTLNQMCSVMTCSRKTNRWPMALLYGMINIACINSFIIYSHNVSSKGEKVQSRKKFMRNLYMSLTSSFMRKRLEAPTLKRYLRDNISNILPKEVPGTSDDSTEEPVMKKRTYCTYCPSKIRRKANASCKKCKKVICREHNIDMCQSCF
Briefly: cell_activity; right only. The note with it: tags: 3xFlag, SV40 NLS.

Series [5] addresses T5, PAH1 Left TAL-PBx (synthetic construct).
T5 chain: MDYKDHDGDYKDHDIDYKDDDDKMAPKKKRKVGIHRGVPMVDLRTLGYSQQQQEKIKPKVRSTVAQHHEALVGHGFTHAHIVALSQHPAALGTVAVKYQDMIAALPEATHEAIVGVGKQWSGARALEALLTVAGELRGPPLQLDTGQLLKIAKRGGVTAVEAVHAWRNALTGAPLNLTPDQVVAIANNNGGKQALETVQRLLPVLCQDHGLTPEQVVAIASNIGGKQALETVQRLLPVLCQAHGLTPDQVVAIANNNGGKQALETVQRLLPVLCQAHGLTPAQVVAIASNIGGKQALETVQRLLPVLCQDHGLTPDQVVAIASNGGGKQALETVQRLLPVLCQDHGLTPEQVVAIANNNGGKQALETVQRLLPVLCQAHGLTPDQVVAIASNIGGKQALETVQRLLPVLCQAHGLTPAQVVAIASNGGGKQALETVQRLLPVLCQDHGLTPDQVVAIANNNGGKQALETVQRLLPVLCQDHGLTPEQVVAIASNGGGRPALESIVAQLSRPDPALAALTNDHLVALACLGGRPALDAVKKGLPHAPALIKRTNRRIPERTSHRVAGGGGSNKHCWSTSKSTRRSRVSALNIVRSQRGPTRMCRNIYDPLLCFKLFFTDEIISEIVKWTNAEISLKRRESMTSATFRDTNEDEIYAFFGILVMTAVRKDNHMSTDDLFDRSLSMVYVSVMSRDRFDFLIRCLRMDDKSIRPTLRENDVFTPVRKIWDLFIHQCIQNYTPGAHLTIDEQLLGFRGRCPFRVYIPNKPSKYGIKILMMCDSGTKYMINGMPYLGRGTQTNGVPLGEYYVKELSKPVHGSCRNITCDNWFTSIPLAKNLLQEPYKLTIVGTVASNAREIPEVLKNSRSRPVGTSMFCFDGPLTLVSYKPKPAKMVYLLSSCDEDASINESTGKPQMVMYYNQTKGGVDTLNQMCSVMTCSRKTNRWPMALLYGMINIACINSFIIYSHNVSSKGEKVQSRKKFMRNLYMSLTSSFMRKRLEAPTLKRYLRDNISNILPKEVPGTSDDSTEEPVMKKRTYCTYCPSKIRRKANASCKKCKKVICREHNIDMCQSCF
Description: cell_activity; left only. The note with it: tags: 3xFlag, SV40 NLS.

B1: GFP1R 13 bp 5'A (dsDNA)
DNA 1: AGCAGATGAACGCAATCTCACGGCTTAACTACTGACCTGAAGTTCATCTGCT
DNA 2: AGCAGATGAACTTCAGGTCAGTAGTTAAGCCGTGAGATTGCGTTCATCTGCT
As to B1, the activity turned out to be 11.3 % GFP+ in series [1], 23.7 % GFP+ in series [2] and 21.5 % GFP+ in series [3].

B2: GFP1R 13 bp 5'C (dsDNA)
DNA 1: CGCAGATGAACGCAATCTCACGGCTTAACTACTGACCTGAAGTTCATCTGCG
DNA 2: CGCAGATGAACTTCAGGTCAGTAGTTAAGCCGTGAGATTGCGTTCATCTGCG
Take B2: the figures for the activity in series [1], in series [2] and in series [3] were 11.5 % GFP+, 22.3 % GFP+ and 18.5 % GFP+, respectively.

B3: PAH1 target (dsDNA)
DNA 1: TGAGATGATGTAACATCTATTCCATTAATTTCATTAACTTGCTTACAAGAGA
DNA 2: TCTCTTGTAAGCAAGTTAATGAAATTAATGGAATAGATGTTACATCATCTCA
For the molecule B3, the activity in series [4] is 4.2 % GFP+; in series [5], 5.7 % GFP+.
